From the supplement of paper PMC12636428

System: Saccharomyces cerevisiae
Test: transcriptional activation domain activity (GFP:mCherry ratio, weighted mean of sorted bins, harmonized to initial dataset scale) (arbitrary fluorescence ratio units); higher = stronger transcriptional activation
Settings: beta-estradiol 1 µM; induction time 4 h
Outline: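 The listed activation activity is a read-weighted mean of bin median fluorescence, averaged across barcodes and linearly mapped onto the initial dataset scale. Barcoded tiles, fused to an estradiol-inducible synthetic transcription factor, were integrated at URA3 in yeast diploids bearing a GFP reporter. Cells were held 4 hours at 30 °C in SC with 1 uM beta-estradiol, sorted into 8 GFP:mCherry bins, and sequenced, and tiles with fewer than 50 reads were excluded.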

Sequence	transcriptional activation domain activity
PRLFPIASHLFFSLPHAKCCYPYLLLLLFPLLPLPFSLLVFCNLIFFFFFLFF	41300
VYVDNDGLPARSQWVLMYERMGEQGGMTLAARFVMFVDFLVQMVRLLSRSPLY	34600
KNGWHIIGSSNNVVAYRLRVYQCMDLTTFFSLQAAFSDCERYFVASAIVLDKK	38500
LLPKSFPYSFFILFFFFLNFLLSSCFFLLFFPSPIRLSPSFTLVVIFHYFLRF	51500
IGSYYGKHELYEEVRAQDKILYCTLVLPFVYFLMFLWIWYYLYCFRFFGFFYA	22000
AAEVKQAKEETGEKAQKKEKKEKEKKAEAAEGGKKKEKAAGGGKPAAEEAAGE	24500
KTIWRDVKEGGECSVEEMCLSYYRSEGWKGYHSEGGILKTLFAYLFYDIMFLY	65700
DDADGKARSRRKDYSDDERGDTRRSRRDEHRSSKEHRSRTVKEGENDRRKAHR	< 6570
MIFMLDANPSYGTLFILLPYLLSLIIPVLITSVLLSDIFFFFISYCMLCLSCC	52200
SLYLCLGMLYLRKNPLLKEPLTLEHIKARLLGHWGSDAGQIFTYIHFNRLIKK	69300
MPSFTLAWPDRAYFYSLLVVSLLSAKFLHLFSHLTALPIFLFLLYFPTFVFLD	76700
GSEIVDGDEESSPDGVRIKAESGSSAPVATSSALPPQGGYIGRLNVRKSGKIE	29800
DQGLTDCGDVRHTKVVSLSYHFSPDYNDPTIIPVVTRWCTEIGKLTLTGITFV	62400
RPSSPPRRPPPSSPSPAPPSKSPATCRSKTSPWGHGRCRPRPPARAPASGTAP	45200
MGVYLQKLGWGYRVWRFLFWMGLSLVSFLFFICCFSLSVHTCFFFFWLGRLGW	27300
CGFVVFVIRWSTVSVGYLGIIRWLVICKKLQFSEIKRIMRVYFCHMALFIFTL	40900
ATIAPPQLELVTDPQLSMDSFLEMIRVFTVPGKCFFDALAADSTDASCTEESL	95400
TAALIELILAIAFRVTMYHLALYGSNVLFRYMRLSNELSNRYANCLVATLNAR	23200
LTHGRERSLIWKAKSSLNKWMFLVLRYFALLDLMFTVAVDTNFHVKYNTPFCI	72400
RAGASPEEASAQSGGSRSKEAEESGSSPTGGEVGKSGGKNSSSSKSVEEKSKD	29700
STARKPRKKKEAEKTVDGAEDEITEETQKPKRKASTKRTSRKTTTDKEETTAT	24200

Sequence	transcriptional activation domain activity
KGKGRENVPESESESEEDGDSSPPKAPVRGARGRGRGASRGRGRGRAPAPAAA	< 6570
VFFVWICCCYGTHILSVFVDPSGMYIVPLNILGSLLHGSTLPCIVASWLIIHL	45600
NANADAAAGNANADAGMANAGNNAAAGNANQAKGKGKKKNKAKGKAAGAGAGA	29500
SKHRRRHRSSSRERHRHRERDGEPSSSRHRSRRDRSRSKDRSKKEESHRSHRS	24500
MVIFRLGSAPFFFLLFLFVLFFRFFFLVCCCLYGWVSVFLLLFFLRFFVSKWG	50700
VEPAPENWRELTQIPAFAGIRSASFVRHTVALVESLLLRAAFVRAVFAELRAC	53700
LFLFLFLIFFSFLKCTFTYIFVPRFRFSLFSHSGPAVSLVYILGLLGYWGVNV	55100
GFVVQQLQKLFLTCIALKLVQRVNSLNKLFKTAVGSLPVILSLLGLWIILFLF	47200
SNFASKVNTQLNLLQHSSSNSNFLDASPYDFNKIFMNNFENYDYETDEGYAED	63600
MRLHCFFLFVFFFSLFSFLLATLCHSPLPLPFVHVSFFPPSLLPLPIFALDPF	33100
LRHICLLLSIWSKHLIERLKKLPANVRLTIVQALVRFVIPKLHIYGHKLLCQL	44500
EERRRGRRRRRKGGGEGGRGRKREKEREERERKGEKKEGERKGKGEEKGREKK	20300
DKPIAAKKPSAQRKRKVKLESDADSSGDDQPIVKKPAAKKPRASKAKKEEPAS	23100
LELQHFLLSFAHFPLLVWVFSWVLVFGFNWFLSIYGVLELFFLFCSHCWIAWS	63900
IKQQWSVFVLWSIWYRIAFTPVFWRNLGRRNLGGLIMILMNEYREVILFYWDM	48500
ERGKRKEGRKEEEGKEGEKGKEEKREEKRRGKRGEEKREGKKKEERRRGRRRR	20800
MVLINIPNFLFSLFFFLFSFFSLLPFFTYLTFLSSSSLLLSTFCCSLASSPCM	50000
LLYLLLLLRKVSVMLCFIDLLIFGIFLCFLSLLLFLSLFFLFLFLLVFSEEFF	37600
MEFGSWGWKSIFFIFFSFRDFMVWHGGVSFFLPYINDFYIFVLIFYCFIYSAS	59800
MFLLAFCIQAEYQLKLLYMFFYFFCSYVSSLIVFVSYFGVLVVLAGLNCFFTY	50300
EAEARGSGGGGERQRDCERQREPRATRAGGDAGARDGAGARGLARGAAGVAAM	51700

Sequence	transcriptional activation domain activity
GSSAFGASGSSGGAFGQPAAQQQQSAFGGGGGLFGKPQGSSFGSTALATTAGQ	55800
ICGMWLRGSFTFLSTVKDPHVLLRTMIKRDPELGFLWVGAFITGCHDRALREG	71200
EPLFLEAQLIHMINFFETFFHKYETSIDRHNLIRHNALEKYYQGINCGRHMLC	95700
CGRCRCCRGLLPLYPHHPFSFFVLLCIPGMFLLLLVHWMFLSFVSGFAILVPE	79500
HAQGEGEYKAAQAEGYAEGTQDRFGGKKDAVIGALTGDRKQEASGTLIPRLKL	34400
GVDGDGAADADADEDDEEGEEDEDDEGGGAGRKRKKARMEAAPKAKPKPAPAK	27700
FRVASYRIWCLLGCGSVWSLIYVPLAWNDGFSLFYLLHPWKIVRVFILNVLAG	54700
MSTWLLRVFFSTCLYIIIWFFFHSFPFLSFFLPCLCCMFFFLACCLVSLSRVL	35200
SNTLSLALYTLIEHIGMQRLEYANNSLVMLLKLIHNIILSLKNLRLFFNFFVT	41900
TYIPCDPLLTIVGGNVPFSSLGLRAFSLAMYSLLVIPGLNLVLPFLFFLLLHL	92200
KISAEYMVQYKGGLIGKHFKSLSQIMAFVVYDLVPKDILDAWTIIGRLVVLLW	75900
AKKADAPAPAAPAKANKRKKAEESEAESEEEPAPAVKKPKVEQPKAAPKAAKA	26700
LLIYGIVGFINLIKGEYLIVITGCKKIGSLVHNAEIYRATSFQILPVTHGLSS	55300
MFCPDVCLVLSIGDVLLAMSYWRCLRETASLFHYHLVPPFELLPLYSVRITAA	58800
FRAPYPCCLDVVFAMIWAGARVCLFDSTKALEDLLLARFVLPPHVVCLVGLAQ	48900
FKVLMQVMPFVLHGLVDDKLRTLWRMLGELGAFLWMPLIKDKEVYLRKLAVII	48700
MPTVRCLLPFVLFTGLLYRILLSLSFLLVLPFLILLFSSPSLLSCFLLLAYIL	57000
SHYALCVNMHAYWHSNPHFGSEHRWLGFPPFYHVFGLSYILLLAPCLGATVCV	61100
MTLLVGYLGVFFLLFSSPSLLEFFFFVTYRVFVVFFFSSSFFFLGYPVFFFFF	36600
YINCGIKMFDPSSIITRRYIRMWPRKQANRVLGMLDKMSQSGGFTKVFFRLLY	58000
ILRKLGFIVHVQLPYNLMINYLRILGLEDDEVISRKAWNYLNDGLRTNIYVTY	55800

Sequence	transcriptional activation domain activity
PGAAGGEKEKKKRQRTKNKKVDAAAPAEDAPAAAAEKLAKLEVAPADDDAAAK	25900
ATLHYISPYCPRFGRYHILRMLHCIGGLHVAANLWCYYWVWVYVLNEIILPQW	66400
VGSLVYVTRYSEHLLVSGEFGPELLGAGAYYGGMLWFFFSSQNYRLLFHWQFW	49800
MINFWLFIFLSSSLLFLPFFFLYIFFNYYYFFLFTQYIMVTWFFENYQFANAW	56200
KLKSLVAIVWILDFVHLILICQAIYHYLITNWGTTQRFCSPPRFSICTLCLSL	55200
EKEGKRRSLQKASTSKASSKTLHFMECKVVPEQPLLRIRWSSLTHGALMLYNG	49300
ATIIFVFTASICGYNFNFDWVFSYKLVEFENTLGWTLFCLWLFDALLCVLFMT	52700
MGNGVRCLLFGKDFSFIFLLYRFSMWFLISPFQLPCWVLVILSCSCSSLSIFG	65700
RRDCATSSDARTPARLCCSHGVGTKLDKAETSREVSAEEARALADAHGARFCE	24300
LLRQQLVYTNHIYLYYFAIISNTLIRFIWILYIPARGPDIILRTFIAALFEML	54200
THSKKQHCDVCKHPYSFTKVYASDMPKQLPLLLVLRKLVQQFFSVLLFSIRAI	45400
VETRSFWFLPVIQKHALHLTMVDILSSTPGIWCLSEFMIGHLLLCVHLRSISV	60500
FYICAILGFKIGIIFAFLRIAVDRTYRISIICVAVICSAFYFCFFVAQLNFCT	62100
GHSGVSVDMHVSFLNSCREGEKVIIKSVIDKKGSRLAFVRVEIKRERDDAIII	49500
VGTLHENLSSSHFMIPDVDQFNSFEDFFQDFFDSLKPNSQKMFTSDKKTEQTT	106000
IFFSQFGRYWIVFPGILFLTSVALSLILIVMLCIPGINLWTTISINLAIPYWA	27300
NPIIRVRGIGLSLTSICFLHCYWILAQVVYPIGQSLPVILAYDIQYFFMGLWF	56900
LVPWRPQKVLWLKVFYLLTRYLAFVDIPINLYSYLGFGISLPACQVLFSWYCW	56100
GTGRSSDDVSSGAGSEEVSQTLDEKMAEEQKGRQRLNNIIQQFYIKGALVIVG	67400
MWYFSRCTRWFLPLLLLPMPTAPPYFLLLFLLSFILHAKPCFYCVILITSLFI	60200
